Test results published in PMC4108065, “Inflammation and pancreatic cancer: molecular and functional interactions between S100A8, S100A9, NT-S100A8 and TGFβ1” (Cell Communication and Signaling : CCS, 2014).
“And” between values parts separate entries of the source, which are not always exact repeats. Identical values can stand only once.

Key:
[1] = Degradation of the 2280 m/z peptide in Capan1 conditioned media (MALDI-TOF/MS); format: in vitro ADME, human; conditions: 37°C
Description: (§1) To obtain BxPC3 and Capan1 conditioned media (CM), 400,000 cells were cultured (75 cm^2 flasks) for 96 hours in RPMI supplemented with 1% FCS and 0.1% gentamycin. In parallel, Ukrain (Nowicky Pharma, Wien, Austria) treated Capan1 CM were obtained as above, the difference being that Ukrain was added 24 hours after cells had been seeded at the final concentration of 5 μM. Complete culture media maintained in a cell culture incubator for 96 hours (negative control), Capan1 and Ukrain-treated Capan1 CM were centrifuged at 1,500 rpm for 10 min, and then immediately mixed with 3 μM S100A8 or 2.5 μM S100A9 (ProSpec-Tany TechnoGene, Ness Ziona, Israel) and maintained at 37°C overnight before MALDI-TOF/MS analyses. Complete culture media, BxPC3 and Capan1 CM, treated as described above, were incubated at 37°C with 200 μM of the S100A8 1–19 N-terminal aminoacid sequence (NT-S100A8) (Primm, Milano, Italy) for 1, 2, 3, 4, 5, 6, 12 and 24 hours before MALDI-TOF/MS analyses. At least three independent sets of experiments were performed for both assays.
(§2) Cell culture media were first desalted and purified by ZipTip C18 pipette tips, following the procedure described in the ZipTip user’s guide. […]

[2] = Degradation of the 2280 m/z peptide in BxPC3 conditioned media (MALDI-TOF/MS); format: in vitro ADME, human; conditions: 37°C
Description: as §1, §2

[3] = Stability of the 2280 m/z peptide in non-conditioned media (MALDI-TOF/MS); format: in vitro ADME; conditions: 200 μM, 37°C, time 0, MALDI-TOF/MS
Description: as §1, §2

[4] = molecular target: T1, S100A9, P06702; assay: MALDI-TOF/MS of mixtures (linear positive ion mode); proteins and CaCl2 mixed at equimolar concentration (11.3 μM) in aqueous solution, incubated overnight at 37°C, diluted 1/10 in 0.1% TFA, sinapinic acid matrix; conditions: remark: other sources report otherwise
T1 chain: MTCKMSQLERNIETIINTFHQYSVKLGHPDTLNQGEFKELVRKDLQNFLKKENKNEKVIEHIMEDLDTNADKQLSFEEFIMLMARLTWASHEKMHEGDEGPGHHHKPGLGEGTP

[5] = molecular target: the molecule itself; assay: as above

In the case of “2280 m/z peptide: synthesized 1–19 N-terminal aminoacid sequence of S100A8, released by Capan1 conditioned medium (MLTELEKALNSIIDVYHKY; UniProt P05109 1-19, looked up, fragment)”, the “time of degradation of the parental 2280 m/z peptide” value ([1]; 200 μM peptide in Capan1 conditioned media (96 h, RPMI 1% FCS), MALDI-TOF/MS, TIC normalized) is reported as 2 h, the “parental 19 aminoacid peptide after 24 hours' incubation” value ([1]; 200 μM, Capan1 conditioned media, 24 hours, MALDI-TOF/MS 650–3000 m/z) is reported as “disappeared” and the “time of degradation of the parental 2280 m/z peptide” value ([2]; 200 μM peptide in BxPC3 conditioned media (96 h, RPMI 1% FCS), MALDI-TOF/MS, TIC normalized) is reported as 12 h. For the same molecule, the “parental 19 aminoacid peptide after 24 hours' incubation” value ([2]; 200 μM, BxPC3 conditioned media, 24 hours, MALDI-TOF/MS 650–3000 m/z) was “disappeared” and the “abundance of the parental peptide at 2280 m/z (TIC normalized)” value [3] was 0.99.

B1: S100A9, P06702 1-114 (natural protein)
chain: MTCKMSQLERNIETIINTFHQYSVKLGHPDTLNQGEFKELVRKDLQNFLKKENKNEKVIEHIMEDLDTNADKQLSFEEFIMLMARLTWASHEKMHEGDEGPGHHHKPGLGEGTP
In the case of B1, the stoichiometry N [4] is reported as 2 and 3.

B2: S100A8 (natural protein, UniProt P05109 1-93, looked up)
chain: MLTELEKALNSIIDVYHKYSLIKGNFHAVYRDDLKKLLETECPQYIRKKGADVWFKELDINTDGAVNFQEFLILVIKMGVAAHKKSHEESHKE
notes: Commercial recombinant protein; source: bought: ProSpec-Tany TechnoGene
For B2, the “stoichiometry N” value [5] was 2.
